One assay deals with DYT-TOR1A MEF EVs. Briefly: Quantitative LC-MS/MS proteomics of EVs from drug-treated DYT-TOR1A MEF cultures (ritonavir, salubrinal). In kind it is cell-based, mouse. Set-up: key to RTV Corrective Direction / RTV Corrective Direction, Grwd1 / RTV Corrective Direction, Srrm2 / RTV Corrective Direction, Rbm17 / RTV Corrective Direction, Dcaf8 / RTV Corrective Direction, Edil3 / RTV Corrective Direction, Timp3 / RTV Corrective Direction, Heatr3 / RTV Corrective Direction, Brd4 / RTV Corrective Direction, P3h4 / RTV Corrective Direction, Pacsin3 / RTV Corrective Direction, Naa50 / RTV Corrective Direction, Lpar6 / RTV Corrective Direction, Ndrg1 / RTV Corrective Direction, Kntc1 / RTV Corrective Direction, Cdk11b / RTV Corrective Direction, Sumo1 / RTV Corrective Direction, Lsm4 / RTV Corrective Direction, Hmga2 / RTV Corrective Direction, Cstf1 / RTV Corrective Direction, Tes / RTV Corrective Direction, Sbno1 / RTV Corrective Direction, Unc119b / RTV Corrective Direction, Cfdp1 / RTV Corrective Direction, Sec61b: YES = protein abundance effect opposite to DYT/WT. The following applies: EV protein abundance; for RTV Corrective Direction: DYT + RTV (ritonavir) vs DYT, direction compared with DYT/WT; for DYT + RTV/DYT Cohen's d: ritonavir (RTV)-treated DYT vs DYT.

The subject of the next assay is WT MEF EVs. Briefly: Quantitative LC-MS/MS proteomics of EVs from ISRIB-treated WT MEF cultures. In kind it is cell-based, mouse. Also noted: key to ISRIB and DYT Parallel Direction / ISRIB and DYT Parallel Direction, Ctdsp1 / ISRIB and DYT Parallel Direction, Pcdh19 / ISRIB and DYT Parallel Direction, Tspan7 / ISRIB and DYT Parallel Direction, Myo1e / ISRIB and DYT Parallel Direction, Plpp3 / ISRIB and DYT Parallel Direction, Sh3bp4 / ISRIB and DYT Parallel Direction, Dnajc7 / ISRIB and DYT Parallel Direction, Drg1 / ISRIB and DYT Parallel Direction, Maea: YES = protein abundance effect similar to DYT/WT. The settings on record: EV protein abundance; for WT + ISRIB/WT Cohen's d: ISRIB-treated WT vs WT; for ISRIB and DYT Parallel Direction: WT + ISRIB vs WT, direction compared with DYT/WT.

B1: Hmgcs1 (protein, UniProt Q8JZK9 1-520, looked up)
Hydroxymethylglutaryl-CoA …: MPGSLPLNAEACWPKDVGIVALEIYFPSQYVDQAELEKYDGVDAGKYTIGLGQARMGFCTDREDINSLCLTVVQKLMERHSLSYDCIGRLEVGTETIIDKSKSVKSNLMQLFEESGNTDIEGIDTTNACYGGTAAVFNAVNWVESSSWDGRYALVVAGDIAIYATGNARPTGGVGAVALLIGPNAPLIFDRGLRGTHMQHAYDFYKPDMLSEYPVVDGKLSIQCYLSALDRCYSVYRKKIRAQWQKEGKDKDFTLNDFGFMIFHSPYCKLVQKSLARMFLNDFLNDQNRDKNSIYSGLEAFGDVKLEDTYFDRDVEKAFMKASSELFNQKTKASLLVSNQNGNMYTSSVYGSLASVLAQYSPQQLAGKRVGVFSYGSGLAATLYSLKVTQDATPGSALDKITASLCDLKSRLDSRTCVAPDVFAENMKLREDTHHLANYIPQCSIDSLFEGTWYLVRVDEKHRRTYARRPFTNDHSLDEGMGLVHSNTATEHIPSPAKKVPRLPATSAESESAVISNGEH
On to B1, for which, in the assay with DYT-TOR1A MEF EVs, the “RTV Corrective Direction” value was “YES” and the “DYT + RTV/DYT Cohen's d” value was found to be 7.26. In the assay on WT MEF EVs, the “WT + ISRIB/WT Cohen's d” value was −0.06; the “ISRIB and DYT Parallel Direction” value is “YES”.

B2: Apex1 (protein, UniProt P28352 2-317, looked up)
DNA repair nuclease/redox …: PKRGKKAAADDGEEPKSEPETKKSKGAAKKTEKEAAGEGPVLYEDPPDQKTSPSGKSATLKICSWNVDGLRAWIKKKGLDWVKEEAPDILCLQETKCSENKLPAELQELPGLTHQYWSAPSDKEGYSGVGLLSRQCPLKVSYGIGEEEHDQEGRVIVAEFESFVLVTAYVPNAGRGLVRLEYRQRWDEAFRKFLKDLASRKPLVLCGDLNVAHEEIDLRNPKGNKKNAGFTPQERQGFGELLQAVPLADSFRHLYPNTAYAYTFWTYMMNARSKNVGWRLDYFLLSHSLLPALCDSKIRSKALGSDHCPITLYLAL
On to B2, for which, in the assay with DYT-TOR1A MEF EVs, the “RTV Corrective Direction” value is on record as “YES” and the “DYT + RTV/DYT Cohen's d” value is on record as 8.06. In addition, in the assay with WT MEF EVs, the “WT + ISRIB/WT Cohen's d” value was −0.67; the “ISRIB and DYT Parallel Direction” value is “YES”.

B3: Gmpr2 (protein, UniProt Q99L27 1-348, looked up)
GMP reductase 2: MPHIDNDVKLDFKDVLLRPKRSTLKSRSEVELTRSFSFRNSKQMYSGIPVIAANMDTVGTFEMARVLCKFSLFTAIHKHYSIHQWQEFASQNPDCLECLAASSGSGSADFEQLEQILEAIPQVKYICLDVANGYSEHFVEFVKDVRKRFPQHTIMAGNVVTGEMVEELILSGADIIKVGIGPGSVCTTRKKTGVGYPQLSAVMECADAAHGLKGHIISDGGCSCPGDVAKAFGAGADFVMLGGMLAGHSESGGELIERDGKKYKLFYGMSSEMAMKKYSGGVAEYRASEGKIVEVPFKGDVEHTIRDILGGIRSTCTYVGAAKLKELSRRTTFIRVTQQVNPIFSNSQ
B3: in the assay with DYT-TOR1A MEF EVs, the “RTV Corrective Direction” value was “YES” and the “DYT + RTV/DYT Cohen's d” value turned out to be 5.10. Moreover, in the assay on WT MEF EVs, the “WT + ISRIB/WT Cohen's d” value was −2.98; the “ISRIB and DYT Parallel Direction” value is “YES”.

B4: Dars (protein, UniProt Q922B2 1-501, looked up)
Aspartate--tRNA ligase, …: MPSTNASRKGQEKPREIVDAAEDYAKERYGISSMIQSQEKPDRVLVRVKDLTVQKADDVVWVRARVHTSRAKGKQCFLVLRQQQFNVQALVAVGDHASKQMVKFAANINKESIIDVEGVVRKVNQKIGSCTQQDVELHVQKIYVISLAEPRLPLQLDDAIRPEVEGEEDGRATVNQDTRLDNRVIDLRTSTSQAIFRLQSGICHLFRETLINKGFVEIQTPKIISAASEGGANVFTVSYFKNNAYLAQSPQLYKQMCICADFEKVFCIGPVFRAEDSNTHRHLTEFVGLDIEMAFNYHYHEVVEEIADTLVQIFKGLQERFQTEIQTVSKQFPCEPFKFLEPTLRLEYCEALAMLREAGVEMDDEEDLSTPNEKLLGRLVKEKYDTDFYVLDKYPLAVRPFYTMPDPRNPKQSNSYDMFMRGEEILSGAQRIHDPQLLTERALHHGIDLEKIKAYIDSFRFGAPPHAGGGIGLERVTMLFLGLHNVRQTSMFPRDPKRLTP
Turning to B4, in the assay on DYT-TOR1A MEF EVs, the “RTV Corrective Direction” value is on record as “YES” and the “DYT + RTV/DYT Cohen's d” value is on record as 9.32. For the same molecule, in the assay on WT MEF EVs, the “WT + ISRIB/WT Cohen's d” value is on record as −1.13; the “ISRIB and DYT Parallel Direction” value is given as “YES”.

B5: Hnrnpf (protein, UniProt Q9Z2X1 1-415, looked up)
Heterogeneous nuclear …: MMLGPEGGEGYVVKLRGLPWSCSIEDVQNFLSDCTIHDGVAGVHFIYTREGRQSGEAFVELESEDDVKLALKKDRESMGHRYIEVFKSHRTEMDWVLKHSGPNSADSANDGFVRLRGLPFGCTKEEIVQFFSGLEIVPNGITLPVDPEGKITGEAFVQFASQELAEKALGKHKERIGHRYIEVFKSSQEEVRSYSDPPLKFMSVQRPGPYDRPGTARRYIGIVKQAGLDRMRSGAYSAGYGGYEEYSGLSDGYGFTTDLFGRDLSYCLSGMYDHRYGDSEFTVQSTTGHCVHMRGLPYKATENDIYNFFSPLNPVRVHIEIGPDGRVTGEADVEFATHEEAVAAMSKDRANMQHRYIELFLNSTTGASNGAYSSQVMQGMGVSAAQATYSGLESQSVSGCYGAGYSGQNSMGGYD
For the molecule B5, in the assay on DYT-TOR1A MEF EVs, the “RTV Corrective Direction” value is listed as “YES” and the “DYT + RTV/DYT Cohen's d” value was determined as 8.04. In addition, in the assay on WT MEF EVs, the “WT + ISRIB/WT Cohen's d” value is −0.18; the “ISRIB and DYT Parallel Direction” value was “YES”.

B6: Lipg (protein, UniProt Q9WVG5 21-500, looked up)
Endothelial lipase: SITTLRPQGSLRDEHHKPTGVPATARPSVAFNIRTSKDPEQEGCNLSLGDSKLLENCGFNMTAKTFFIIHGWTMSGMFESWLHKLVSALQMREKDANVVVVDWLPLAHQLYTDAVNNTRVVGQRVAGMLDWLQEKEEFSLGNVHLIGYSLGAHVAGYAGNFVKGTVGRITGLDPAGPMFEGVDINRRLSPDDADFVDVLHTYTLSFGLSIGIRMPVGHIDIYPNGGDFQPGCGFNDVIGSFAYGTISEMVKCEHERAVHLFVDSLVNQDKPSFAFQCTDSSRFKRGICLSCRKNRCNNIGYNAKKMRKKRNSKMYLKTRAGMPFKVYHYQLKVHMFSYNNSGDTQPTLYITLYGSNADSQNLPLEIVEKIELNATNTFLVYTEEDLGDLLKMRLTWEGVAHSWYNLWNEFRNYLSQPSNPSRELYIRRIRVKSGETQRKVTFCTQDPTKSSISPGQELWFHKCQDGWKMKNKTSPFVNLA
On to B6, for which, in the assay with DYT-TOR1A MEF EVs, the “RTV Corrective Direction” value is reported as “YES” and the “DYT + RTV/DYT Cohen's d” value is given as 2.88. In the assay with WT MEF EVs, the “WT + ISRIB/WT Cohen's d” value is listed as −2.47; the “ISRIB and DYT Parallel Direction” value was “YES”.

B7: Ephx1 (protein, UniProt Q9D379 1-455, looked up)
Epoxide hydrolase 1: MWLELILASVLGFVIYWFVSRDKEETLPLEDGWWGPGSKPSAKEDESIRPFKVETSDEEIKDLHQRIDRFRASPPLEGSRFHYGFNSSYLKKVVSFWRNEFDWRKQVEILNQYPHFKTKIEGLDIHFIHVKPPQLPSGRTPKPLLMVHGWPGSFYEFYKIIPLLTDPKTHGLSDEHVFEVICPSIPGYGFSEASSKKGLNSVATARIFYKLMSRLGFQKFYIQGGDWGSLICTNIAQMVPNHVKGLHLNMSFISRNIYSLTPLLGQRFGRFLGYTEKDLELLYPFKEKVFYNIMRESGYLHIQATKPDTVGCALNDSPVGLAAYILEKFSTWTKSEYRELEDGGLERKFSLEDLLTNIMIYWTTGTIVSSQRFYKENLGQGVMVHRHEGMKVFVPTGYSAFPSEILHAPEKWVKVKYPKLISYSYMERGGHFAAFEEPKLLAQDIRKFVSLAELQ
As to B7, in the assay with DYT-TOR1A MEF EVs, the “RTV Corrective Direction” value is “YES” and the “DYT + RTV/DYT Cohen's d” value was 1.48. In addition, in the assay with WT MEF EVs, the “WT + ISRIB/WT Cohen's d” value is −0.32; the “ISRIB and DYT Parallel Direction” value is reported as “YES”.

B8: Eif2b1 (protein, UniProt Q99LC8 1-305, looked up)
Translation initiation factor …: MEDGELIEYFKSQMKGDPKMASAVAAIQTLLEFLKRDKGETLQGLRANLTYAIKTLCGVDSSVAVSSGGELFLRFISLTSLEYSDYSKCKKIMIERGELFLRRISLSRNKIANLCHTFIKDGARILTHAYSRVVLRVLEEAVAAKKRFSVYITESQPDLSGKKMAKALSHLNVPVTVVLDAAVGYIMEKADLVIVGAEGVVENGGIINKIGTNQMAVCAKAQNKPFYVVAESFKFVRLFPLNQEDVPDKFKYKADTLKSVQTGQDLKEEHPWVDYTSPSLITLLFTDLGVLTPSAVSDELIKLYL
In the case of B8, in the assay with DYT-TOR1A MEF EVs, the “RTV Corrective Direction” value is reported as “YES” and the “DYT + RTV/DYT Cohen's d” value worked out at 5.03. Further, in the assay on WT MEF EVs, the “WT + ISRIB/WT Cohen's d” value is −0.70; the “ISRIB and DYT Parallel Direction” value is “YES”.

B9: Shmt2 (protein, UniProt Q9CZN7 30-504, looked up)
Serine …: KVAQTQAGEAAGGWTGQESLSDSDPEMWELLQREKDRQCRGLELIASENFCSRAALEALGSCLNNKYSEGYPGKRYYGGAEVVDEIELLCQRRALEAFDLDPAQWGVNVQPYSGSPANLAAYTALLQPHDRIMGLDLPDGGHLTHGYMSDVKRISATSIFFESMPYKLNPQTGLIDYDQLALTARLFRPRLIIAGTSAYARLIDYARMREVCDEVRAHLLADMAHISGLVAAKVIPSPFKYADVVTTTTHKTLRGARSGLIFYRKGVRTVDPKTGKEIPYTFEDRINFAVFPSLQGGPHNHAIAAVAVALKQACTPMFREYSLQVLRNAQAMADALLKRGYSLVSGGTDTHLVLVDLRPKGLDGARAERVLELVSITANKNTCPGDRSAITPGGLRLGAPALTSRQFREDDFRRVVDFIDEGVNIGLEVKRKTAKLQDFKSFLLKDPETSQRLANLRQQVEQFARGFPMPGFDER
Consider B9, for which, in the assay on DYT-TOR1A MEF EVs, the “RTV Corrective Direction” value is listed as “YES” and the “DYT + RTV/DYT Cohen's d” value came out at 8.98. Moreover, in the assay with WT MEF EVs, the “WT + ISRIB/WT Cohen's d” value is −1.44; the “ISRIB and DYT Parallel Direction” value was “YES”.

The values are drawn from patent US20260266848A1, “COMPOSITIONS AND METHODS FOR DIAGNOSING AND TREATING DYSTONIA” (Duke University, priority 2023, published 2026).
